Measured values published in PMC7409020 (2020).
Square brackets hold non-standard residues; d marks the D form. Ends that are not written are not given here.

B1: RI-A-CooP (peptide)
peptide: [dA][dV]G[dL]G[dS][dL]G[dC][dA]-NH2
modifications: N-terminus assumed
SMILES: CC(C)C[C@@H](NC(=O)CNC(=O)[C@H](NC(=O)[C@@H](C)N)C(C)C)C(=O)NCC(=O)N[C@H](CO)C(=O)N[C@H](CC(C)C)C(=O)NCC(=O)N[C@H](CS)C(=O)N[C@H](C)C(N)=O

Target: recombinant N-terminal His6-tagged human FABP3 (human, NT-650-NHS red amine-reactive fluorescent dye (in the MST experiments only))
Sequence (P05413 whole entry): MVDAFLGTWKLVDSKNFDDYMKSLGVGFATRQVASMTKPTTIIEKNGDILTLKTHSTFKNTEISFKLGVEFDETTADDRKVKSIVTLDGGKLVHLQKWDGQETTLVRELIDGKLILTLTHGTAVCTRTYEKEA
Test: MST

Row | Binder | Kd
1 | ACGASGLGVA-NH2 [A-[Ala^3]CooP] | 250 nM
2 | ACGLSGAGVA-NH2 [A-[Ala^6]CooP] | 190 nM
3 | B1 | 24000 nM
4 | ACALSGLGVA-NH2 [A-[Ala^2]CooP] | 90 nM
5 | ACGLAGLGVA-NH2 [A-[Ala^4]CooP] | 110 nM
6 | ACGLSGLGAA-NH2 [A-[Ala^8]CooP] | 120 nM
